Source: PMC10269810, “RNA Encapsulation Mode and Evolutionary Insights from the Crystal Structure of Emaravirus Nucleoprotein”
Several values for one entry are separate records, joined by “and”; a condition that tells them apart may be missing. Identical values can stand only once.

How the values were obtained:
[1] = biological target: trypsin-treated fig mosaic virus nucleoprotein lacking the first 45 N-terminal residues (N^ΔN45) (fig mosaic virus); experiment: crystal structure; RNA-free N^ΔN45, hanging drop at 16°C, sodium formate pH 7.0, space group P2_(1), four molecules in the asymmetric unit
[2] = biological target: trypsin-treated fig mosaic virus nucleoprotein lacking the first 45 N-terminal residues (N^ΔN45) (fig mosaic virus); experiment: crystal structure; N^ΔN45 co-crystallized with 42-mer poly(U) ssRNA, 20% PEG 3350, 0.2 M magnesium formate pH 5.9, space group P2_(1)2_(1)2_(1)
[3] = biological target: fig mosaic virus nucleoprotein, full length (N^fl) (fig mosaic virus); experiment: SEC-MALS; RNA-free purified N^fl; conditions not given
FMV N full length (Nfl) = FMV N full length (Nfl) (Fig mosaic virus (Fimoviridae, …, UniProt I2FFM8 1-315)); experiment: fluorescence polarization; RNA 1 uM; ITC: 20 mM Tris pH 7.4, 150 mM NaCl, 5% glycerol, 5 mM beta-ME, 25 C; FP: 1 uM RNA, 37 C 20 min incubation, buffer not stated (protein stock 20 mM Tris pH 7.5); details: protein: recombinant; tags: N-terminal 6xHis removed by TEV; chain copies: 4; label: 5' 6-carboxyfluorescein (FAM); single strand

Molecule: trypsin-treated fig mosaic virus nucleoprotein lacking the first 45 N-terminal residues (N^ΔN45) (domain or fragment)
- stoichiometry N [1]: 4
- stoichiometry N [2]: 4

Molecule: fig mosaic virus nucleoprotein, full length (N^fl) (natural protein)
- stoichiometry N [3]: 4 and 3 and 5

B1: poly(rU) 42-mer, FAM (ssRNA)
RNA: UUUUUUUUUUUUUUUUUUUUUUUUUUUUUUUUUUUUUUUUUU
- Kd (FMV N full length (Nfl)): ~5 µM
